Key:
human PD-L1 on cells [1] = molecular target: T1, human PD-L1 on cells (human, UniProt Q9NZQ7 19-290); assay: flow cytometry on monocyte-derived dendritic cells, saturation fit on a linear axis
T1 construct: whole, on cells; also called HEK-PD-L1 cells; PD-L1-expressing HEK 293 cells

human PD-L1 on cells [2] = molecular target: T1, human PD-L1 on cells; assay: flow cytometry on activated CD4 T cells, saturation fit on a linear axis
human PD-L1 on cells [3] = molecular target: T1, human PD-L1 on cells; assay: flow cytometry on activated CD4 T cells, MFI
[4] = molecular target: T2, recombinant cynomolgus monkey PD-L1 (cynomolgus monkey, UniProt G7PSE7 19-238); assay: direct ELISA on plate-coated recombinant cynomolgus monkey PD-L1; anti-human Fc-HRP, TMB, OD 650 nm
T2 construct: also called cynomolgus macaque PD-L1
Method: To assess specificity of the selected clones, a direct ELISA for human and cynomolgus monkey PD-L1 was performed. ELISA plates were coated with recombinant human or cynomolgus monkey PD-L1. […] Serial dilutions of chimeric anti-PD-L1 antibodies were added, and a secondary HRP-conjugated, anti-human Fc-specific antibody was added. After washing, TMB substrate was added and plates were read at OD 650 nm.

human PD-L1 on cells [5] = molecular target: T1, human PD-L1 on cells; assay: flow cytometry on monocyte-derived dendritic cells; PE anti-human Fc, MFI
Method: The chimeric PD-L1 antibodies were further assessed for their ability to bind to human myeloid-derived dendritic cells. CD14 monocytes were isolated from PBMC using directly conjugated magnetic beads (Miltenyi) and cultured for 7 days in the presence of GM-CSF (100 ng/ml) and IL-4 (50 ng/ml) (Peprotech) to generate myeloid dendritic cells (mDC). mDC were added to 96-well plates (100,000 cells/well) and serial dilution of anti-PD-L1 antibodies or IgG1 isotype control antibody was added in duplicates and plates were incubated for 30 min on ice. After washing, a PE-conjugated donkey anti-human Fc specific antibody (Jackson Immunoresearch, 1:200 dilution) was added and plates were further incubated for 15 minutes on ice. After washing, cells were analyzed using a MACS quant flow cytometer.

human PD-L1 on cells [6] = molecular target: T1, human PD-L1 on cells; assay: flow cytometry on HEK-PD-L1 cells, saturation fit on a linear axis; column head prints only Kd, unit taken from the axis Ab (nM)
human PD-L1 on cells [7] = molecular target: T1, human PD-L1 on cells; assay: flow cytometry on human PD-L1 transfected HEK 293 cells; PE anti-human Fc, MFI
Method: Stable human PD-L1 transfected HEK 293 cells (Crown Bio, San Diego, Calif.) were added to 96-well plates (100,000 cells/well) and serial dilution of anti-PD-L1 antibodies or IgG1 isotype control antibody was added in duplicates and plates were incubated for 30 minutes on ice. After washing, a PE-conjugated donkey anti-human Fc specific antibody (Jackson Immunoresearch, West Grove, Pa. 1:200 dilution) was added and plates were further incubated for 15 minutes on ice. After washing, cells were analyzed using a MACS quant flow cytometer.

mouse PD-L1 = mouse PD-L1 (mouse, UniProt Q9EP73 19-239, limits assumed); assay: assay not described
human PD-L1 on cells [8] = molecular target: T1, human PD-L1 on cells; assay: flow cytometry on CD4 T cells activated with anti-CD3; MFI; column head prints only EC50, unit taken from the axis Antibody Concentration (nM)
human PD-L1 on cells [9] = molecular target: T1, human PD-L1 on cells; assay: flow cytometry on HEK-PD-L1 cells; PE anti-human Fc, MFI
human PD-L1 on cells [10] = molecular target: T1, human PD-L1 on cells; assay: flow cytometry on HEK PD-L1 cells, saturation fit on a linear axis
[11] = molecular target: T3, human PD-L1-his (Sino Biologics) (human, UniProt Q9NZQ7 19-238); assay: competition ELISA: human PD-L1-his coated at 1 µg/ml, antibody dilutions, then human PD-1-mouse-Fc at 1 µg/ml, anti-mouse IgG-HRP, OD 650 nm
T3 construct: Bought from Sino Biologics; not shown: his tag
Method: Plates were coated with 100 μl of 1 μg/ml human PD-L1-his (Sino Biologics, Beijing, China) in carbonate-bicarbonate buffer overnight. After washing, plates were blocked with PBS 0.05% Tween-20 for 1 hour, and serial dilutions of anti-PD-L1 human chimeric antibody or IgG1 isotype control antibody was added. […] After washing, goat anti-mouse IgG (H+L)-HRP antibody (Jackson ImmunoResearch West Grove, Pa.) and plates were further incubated for 1 hour. After washing, TMB substrate (SurModics, Eden Prairie, Minn.) was added. The reaction was stopped using stop solution (SurModics) and plates were read at OD=650 nanometer.

human PD-L1 on cells [12] = molecular target: T1, human PD-L1 on cells; assay: flow cytometry on HEK PD-L1 cells, MFI
human PD-L1 on cells [13] = molecular target: T1, human PD-L1 on cells; assay: flow cytometry on monocyte-derived dendritic cells, MFI
recombinant human PD-L1 = molecular target: T4, recombinant human PD-L1 (human, UniProt Q9NZQ7 19-238, limits assumed); assay: ELISA on human PD-L1, OD 650 nm
T4 construct: also called PD-L1 protein
T4 sequence (Q9NZQ7 19-238 limits assumed): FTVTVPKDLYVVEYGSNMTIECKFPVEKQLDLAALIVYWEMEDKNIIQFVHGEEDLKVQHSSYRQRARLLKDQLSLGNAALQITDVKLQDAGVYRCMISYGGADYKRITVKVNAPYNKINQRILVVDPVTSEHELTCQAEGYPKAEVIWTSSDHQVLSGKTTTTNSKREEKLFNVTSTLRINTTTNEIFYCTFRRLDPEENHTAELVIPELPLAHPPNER

T1 sequence (Q9NZQ7 19-290): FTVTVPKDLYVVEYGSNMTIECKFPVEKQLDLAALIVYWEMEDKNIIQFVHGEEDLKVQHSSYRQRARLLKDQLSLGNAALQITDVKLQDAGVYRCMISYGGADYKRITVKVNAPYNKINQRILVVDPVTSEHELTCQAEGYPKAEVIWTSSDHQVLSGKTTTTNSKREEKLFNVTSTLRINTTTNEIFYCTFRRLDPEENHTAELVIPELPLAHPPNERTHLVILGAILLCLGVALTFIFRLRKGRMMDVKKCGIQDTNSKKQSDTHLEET
T2 sequence (G7PSE7 entry or part of it limits assumed): as the sequence (Q9NZQ7 19-238 limits assumed) above, with A33T, A34S, S62N, R68Q, Q82R, F173L, T185A, T192I, H215L counted along it
mouse PD-L1, sequence (Q9EP73 19-239 limits assumed): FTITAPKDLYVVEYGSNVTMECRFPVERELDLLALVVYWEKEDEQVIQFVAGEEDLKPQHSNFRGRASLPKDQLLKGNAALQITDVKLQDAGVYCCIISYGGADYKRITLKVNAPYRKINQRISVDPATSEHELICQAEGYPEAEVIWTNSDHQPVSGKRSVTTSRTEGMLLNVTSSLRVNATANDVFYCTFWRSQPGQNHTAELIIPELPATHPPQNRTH
T3 sequence (Q9NZQ7 19-238 limits assumed): as the sequence (Q9NZQ7 19-238 limits assumed) above

Kd (human PD-L1 on cells [1]): 0.79 nM
Kd (human PD-L1 on cells [2]): 0.015 nM
EC50 (human PD-L1 on cells [3]): 0.019 nM
EC50 (read off the curve) [4]: ~4 ng/mL
EC50 (human PD-L1 on cells [5]): 0.4 nM
Kd (human PD-L1 on cells [6]): 0.3 nM
EC50 (human PD-L1 on cells [7]): 0.17 nM
binding result (mouse PD-L1): no binding
EC50 (human PD-L1 on cells [8]): 0.68 nM
EC50 (read off the curve) (human PD-L1 on cells [9]): ~0.4 nM
Kd (human PD-L1 on cells [10]): 0.16 nM
IC50 (read off the curve) [11]: ~20 ng/mL
EC50 (human PD-L1 on cells [12]): 0.27 nM
EC50 (human PD-L1 on cells [13]): 1.66 nM
EC50 (recombinant human PD-L1): 7.13 ng/mL
B1: chimeric anti-PD-L1 antibody 9A9 (antibody, human IgG1, V domains shown)
VH: QSVEESGGRLVTPGTPLTLTCTVSGIDLSGYWMSWVRQAPGKGLEYIGIVDNDGSAYYASWVNGRFTISKTSTTVDLKITSPTTEDTATYFCARQSGDWTFDLWGPGTLVTVSS
VL: DVVMTQTPASVSEPVGGTVTIKCQASQSIGRWLSWYQQKPGQPPKLLIYQASKLASGVPSRFSGSGSGTEFTLTISDLECADAATYYCQNNYDIIAYGNAFGGGTEVVVK
notes: also called c9A9; chimeric 9A9
